Test results taken from patent US20260242478A1 (published 2026).
Where no end group is shown, it is not given here.

B1: Phage-686 (peptide)
peptide: YCDGHLPEYQMKCL
B2: Phage-690 (peptide)
peptide: YCEGHAPQHMDKCL
B3: Phage-689 (peptide)
peptide: YCEGHAIQYMSKCL
B4: Phage-664 (peptide, not shown: large carriers)
peptide: YCEGHAPEHMAKCL
notes: Clonal phage supernatant of the Peptide-87 library
B5: Phage-681 (peptide)
peptide: YCQGHMPEYMDKCL
notes: Clonal phage of the Peptide-87 library
B6: Phage-695 (peptide)
peptide: YCSGHLPEYMSKCL
B7: Phage-656 (peptide)
peptide: YCAGHLPQYMEKCM
notes: tested as crude phage supernatant
B8: Phage-666 (peptide, not shown: large carriers)
peptide: YCEGHSPEYMSHCF
notes: as for B4
B9: Phage-687 (peptide)
peptide: YCDGHASEYMMKCL
B10: Phage-691 (peptide)
peptide: YCEGHSPQYMSKCL
B11: Phage-685 (peptide)
peptide: YCEGHAPEYMYKCL
B12: Phage-675 (peptide)
peptide: YCEGHADIYMQKCL
notes: as for B5
B13: Phage-667 (peptide, not shown: large carriers)
peptide: YCEGHSMQHMAKCL
notes: as for B4
B14: Phage-671 (peptide)
peptide: YCDGHELRYMAKCL
notes: as for B5
B15: Phage-696 (peptide)
peptide: YCEGHAPQYIAKCL
modifications: cysteine pairing not given here; also: displayed on phage by fusion to pIII, pIII and linker sequence not given here
B16: Phage-665 (peptide, not shown: large carriers)
peptide: YCDGHAEQYMEKCL
notes: as for B4
B17: Phage-668 (peptide, not shown: large carriers)
peptide: YCDGHAQEFMSKCL
notes: as for B4
B18: Phage-678 (peptide)
peptide: YCEGHLPIYMDKCL
notes: as for B5
B19: Phage-694 (peptide)
peptide: YCDGHSSEYMWKCL
B20: Phage-661 (peptide, not shown: large carriers)
peptide: YCAGHLEIYMQKCL
notes: as for B4
B21: Phage-660 (peptide, not shown: large carriers)
peptide: YCSGHLPEYMEKCL
notes: as for B4
B22: Phage-684 (peptide)
peptide: YCDGHSAQYMHKCL
B23: Phage-670 (peptide)
peptide: YCEGHAPQYIQKCL
notes: as for B5
B24: Phage-658 (peptide, not shown: large carriers)
peptide: YCEGHTAEYLQKCL
notes: as for B4
B25: Phage-688 (peptide)
peptide: YCDGHLIEYMEKCL
B26: Phage-673 (peptide)
peptide: YCEGHSDEYMLKCL
notes: as for B5
B27: Phage-682 (peptide)
peptide: YCDGHAPEYVMKCL
notes: as for B5
B28: Phage-669 (peptide, not shown: large carriers)
peptide: YCAGHLPEYIDKCL
notes: as for B4
B29: Phage-680 (peptide)
peptide: YCAGHIEEYMWKCL
notes: as for B5
B30: Phage-683 (peptide)
peptide: YCDGHVGEYMQKCL
B31: Phage-677 (peptide)
peptide: YCDGHAPQYMGKCL
notes: as for B5
B32: Phage-657 (peptide, not shown: large carriers)
peptide: YCAGHLPEHIGKCL
notes: as for B4
B33: Phage-674 (peptide)
peptide: YCEGHAPEYMMKCI
notes: as for B5
B34: Phage-662 (peptide, not shown: large carriers)
peptide: YCMGHLPQYMEKCL
notes: as for B4
B35: Phage-693 (peptide)
peptide: YCLGHAPQYIQKCL
B36: Phage-659 (peptide, not shown: large carriers)
peptide: YCAGHSPEYMGKCM
notes: as for B4
B37: Phage-672 (peptide)
peptide: YCDGHLPAYMAKCL
notes: as for B5
B38: Phage-679 (peptide)
peptide: YCDGHAIEYMQKCL
notes: as for B5
B39: Phage-676 (peptide)
peptide: YCEGHSAEYMNKCL
notes: as for B5
B40: Phage-663 (peptide, not shown: large carriers)
peptide: YCEGHSAEYMWKCL
notes: as for B4
B41: Phage-692 (peptide)
peptide: YCDGHFREYMQKCL
B42: Phage-655 (peptide)
peptide: YCQGHLPQYIAKCL
notes: as for B7

Legend:
[1] = molecular target: T1, Anti-CD28 Fab (SEQ ID NOs: 696, 697); assay: phage binding ELISA on captured anti-CD28 Fab; competitor: CD28 antigen pre-incubated in the wells
T1 construct: In the phage ELISA the Fab was biotinylated and captured on neutravidin coated plates
T1 sequence (VH, as listed by the source, chain 1 of 2): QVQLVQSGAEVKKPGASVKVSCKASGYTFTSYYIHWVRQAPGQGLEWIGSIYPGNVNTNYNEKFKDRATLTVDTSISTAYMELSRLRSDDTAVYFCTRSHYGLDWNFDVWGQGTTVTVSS
T1 sequence (VL, as listed by the source, chain 2 of 2): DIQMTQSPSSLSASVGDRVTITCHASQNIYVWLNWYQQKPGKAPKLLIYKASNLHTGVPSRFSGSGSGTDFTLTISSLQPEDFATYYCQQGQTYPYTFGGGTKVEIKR
Description: (§1) After panning, phage infected bacteria were plated out and colonies picked into 96 well blocks. Clonal phage was then amplified and separated from bacterial cells via centrifugation.
(§2) Clonal phage were harvested as crude supematants and screened via standard ELISAs. […] Prior to the addition of clonal phage, wells were incubated with blocking buffer and CD28 antigen or blocking buffer alone. Without washing or aspirating, clonal phage supematants were then added to the wells and incubated for a short time. Wells were then washed followed by detection of bound phage using a horse radish conjugated anti-M13 antibody. Clonal phage of interest were then sent for sequence analysis.

[2] = molecular target: T1, Anti-CD28 Fab (SEQ ID NOs: 696, 697); assay: phage binding ELISA; biotinylated anti-CD28 Fab on neutravidin plate, bound phage detected with anti-M13-HRP
Description: as §1, §2

[3] = molecular target: T2, Anti-CD28 Fab (SEQ ID NOs: 696, 697); assay: phage binding ELISA on anti-CD28 Fab plate pre-incubated with CD28 antigen as competitor; anti-M13 HRP detection
T2 construct: Biotinylated and captured on neutravidin coated plates in the phage ELISA
T2 sequence (VH, as listed by the source, chain 1 of 2): as the sequence (VH, as listed by the source, chain 1 of 2) above
T2 sequence (VL, as listed by the source, chain 2 of 2): as the sequence (VL, as listed by the source, chain 2 of 2) above
Description: as §1, §2

[4] = molecular target: T2, Anti-CD28 Fab (SEQ ID NOs: 696, 697); assay: phage binding ELISA; biotinylated anti-CD28 Fab on neutravidin plate, clonal phage supernatant, anti-M13 HRP detection
Description: as §1, §2

[5] = molecular target: T3, Anti-CD28 Fab (SEQ ID NOs: 696, 697); assay: phage ELISA on plate-bound anti-CD28 Fab, wells pre-incubated with CD28 antigen as competitor
T3 construct: Biotinylated and captured on neutravidin coated plates in the phage ELISA
T3 sequence (VH, as listed by the source, chain 1 of 2): as the sequence (VH, as listed by the source, chain 1 of 2) above
T3 sequence (VL, as listed by the source, chain 2 of 2): as the sequence (VL, as listed by the source, chain 2 of 2) above
Description: as §1, §2

[6] = molecular target: T3, Anti-CD28 Fab (SEQ ID NOs: 696, 697); assay: phage ELISA; biotinylated anti-CD28 Fab on neutravidin plate, clonal phage supernatant, anti-M13 HRP detection;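 note: crude supernatants of single phage clones picked after panning were screened for binding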
[7] = molecular target: T4, Anti-CD28 Fab (SEQ ID NOs: 696, 697) (biotinylated (site not stated)); assay: phage binding ELISA; biotinylated anti-CD28 Fab on neutravidin plates, clonal phage supernatant, anti-M13 HRP detection
[8] = molecular target: T4, Anti-CD28 Fab (SEQ ID NOs: 696, 697); assay: phage binding ELISA; Fab-coated wells pre-incubated with CD28 antigen as competitor, then clonal phage, anti-M13 HRP detection
Description: as §1, §2

[9] = molecular target: Anti-CD28 Fab (SEQ ID NOs: 696, 697); assay: phage binding ELISA; captured anti-CD28 Fab pre-incubated with CD28 antigen as competitor, anti-M13 HRP detection
Target sequence in this assay (VH, as listed by the source, chain 1 of 2): as the sequence (VH, as listed by the source, chain 1 of 2) above
Target sequence in this assay (VL, as listed by the source, chain 2 of 2): as the sequence (VL, as listed by the source, chain 2 of 2) above

[10] = molecular target: Anti-CD28 Fab (SEQ ID NOs: 696, 697); assay: phage binding ELISA; biotinylated anti-CD28 Fab on neutravidin plate, clonal phage supernatant, anti-M13 HRP detection
Target sequence in this assay (VH, as listed by the source, chain 1 of 2): as the sequence (VH, as listed by the source, chain 1 of 2) above
Target sequence in this assay (VL, as listed by the source, chain 2 of 2): as the sequence (VL, as listed by the source, chain 2 of 2) above
Description: as §1, §2

T4 sequence (VH, as listed by the source, chain 1 of 2): as the sequence (VH, as listed by the source, chain 1 of 2) above
T4 sequence (VL, as listed by the source, chain 2 of 2): as the sequence (VL, as listed by the source, chain 2 of 2) above

Binder | Anti-CD28 Fab signal in the presence of CD28 (phage binding ELISA) [1] | Anti-CD28 Fab signal (phage binding ELISA) [2] | Anti-CD28 Fab signal in the presence of CD28 (phage binding ELISA) [3] | Anti-CD28 Fab signal (phage binding ELISA) [4] | Anti-CD28 Fab signal in the presence of CD28 (phage binding ELISA) [5] | Anti-CD28 Fab signal (phage binding ELISA) [6] | other results
B1 | 0.08 | 2.05 | – | – | – | – | –
B2 | 0.08 | 2.04 | – | – | – | – | –
B3 | 0.06 | 2.04 | – | – | – | – | –
B4 | – | – | 0.1 | 2.08 | – | – | –
B5 | – | – | – | – | 0.07 | 2.05 | –
B6 | 0.09 | 2.03 | – | – | – | – | –
B7 | – | – | – | – | – | – | Anti-CD28 Fab signal (phage binding ELISA) [7]: 2.09; Anti-CD28 Fab signal in the presence of CD28 (phage binding ELISA) [8]: 0.08
B8 | – | – | 0.09 | 2.08 | – | – | –
B9 | 0.06 | 2.05 | – | – | – | – | –
B10 | 0.07 | 2.04 | – | – | – | – | –
B11 | 0.07 | 2.05 | – | – | – | – | –
B12 | – | – | – | – | 0.07 | 2.06 | –
B13 | – | – | 0.08 | 2.07 | – | – | –
B14 | – | – | – | – | 0.07 | 2.07 | –
B15 | – | – | – | – | – | – | Anti-CD28 Fab signal in the presence of CD28 [9]: 0.08; Anti-CD28 Fab (SEQ ID NOs: 696, 697) signal [10]: 2.03
B16 | – | – | 0.07 | 2.08 | – | – | –
B17 | – | – | 0.12 | 2.07 | – | – | –
B18 | – | – | – | – | 0.08 | 2.06 | –
B19 | 0.06 | 2.03 | – | – | – | – | –
B20 | – | – | 0.08 | 2.09 | – | – | –
B21 | – | – | 0.09 | 2.09 | – | – | –

Binder | Anti-CD28 Fab signal in the presence of CD28 (phage binding ELISA) [1] | Anti-CD28 Fab signal (phage binding ELISA) [2] | Anti-CD28 Fab signal in the presence of CD28 (phage binding ELISA) [3] | Anti-CD28 Fab signal (phage binding ELISA) [4] | Anti-CD28 Fab signal in the presence of CD28 (phage binding ELISA) [5] | Anti-CD28 Fab signal (phage binding ELISA) [6] | other results
B22 | 0.06 | 2.05 | – | – | – | – | –
B23 | – | – | – | – | 0.07 | 2.07 | –
B24 | – | – | 0.1 | 2.09 | – | – | –
B25 | 0.06 | 2.04 | – | – | – | – | –
B26 | – | – | – | – | 0.07 | 2.06 | –
B27 | – | – | – | – | 0.1 | 2.05 | –
B28 | – | – | 0.08 | 2.07 | – | – | –
B29 | – | – | – | – | 0.06 | 2.05 | –
B30 | 0.08 | 2.05 | – | – | – | – | –
B31 | – | – | – | – | 0.08 | 2.06 | –
B32 | – | – | 0.07 | 2.09 | – | – | –
B33 | – | – | – | – | 0.06 | 2.06 | –
B34 | – | – | 0.08 | 2.08 | – | – | –
B35 | 0.14 | 2.04 | – | – | – | – | –
B36 | – | – | 0.06 | 2.09 | – | – | –
B37 | – | – | – | – | 0.12 | 2.06 | –
B38 | – | – | – | – | 0.07 | 2.05 | –
B39 | – | – | – | – | 0.07 | 2.06 | –
B40 | – | – | 0.09 | 2.08 | – | – | –
B41 | 0.06 | 2.04 | – | – | – | – | –
B42 | – | – | – | – | – | – | Anti-CD28 Fab signal (phage binding ELISA) [7]: 2.09; Anti-CD28 Fab signal in the presence of CD28 (phage binding ELISA) [8]: 0.08
